Reference: publication PMC9563779

Molecular target: Oslo-2 mAb
Assay: peptide array on cellulose membrane (epitope mapping)
Conditions: chain shown with the change; duplicates; parent: est. 12000; read off a plot

Oslo-2 mAb, sequence (chain, as listed by the source, chain 1 of 2): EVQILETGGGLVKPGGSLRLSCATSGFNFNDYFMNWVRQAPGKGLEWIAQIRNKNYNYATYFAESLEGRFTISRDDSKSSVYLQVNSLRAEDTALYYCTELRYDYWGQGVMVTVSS
Oslo-2 mAb, sequence (chain, as listed by the source, chain 2 of 2): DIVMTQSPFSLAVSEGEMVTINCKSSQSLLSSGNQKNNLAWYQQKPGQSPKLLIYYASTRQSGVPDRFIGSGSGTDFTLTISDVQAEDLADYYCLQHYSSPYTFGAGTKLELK

response: 1700
B1: 20 mer epitope peptide … (region 603-622 in HER2) E619A; E620A (peptide)
chain: GVKPDLSYMPIWKFPDAAGA
